# Results taken from US20180334496A1 (KODIAK SCIENCES, published 2018).
# Columns and labels:
# [1] = target: T1, serum purified human Complement Factor D (human, UniProt P00746 26-253); assay: SPR Biacore, antibody on protein A chip, single cycle kinetics, 25 C;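 also: antibodies captured to roughly 70 RU on the protein A surface in HBS-EP+ running buffer, with kinetic constants derived by BIAevaluation fitting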
# T1 construct: Serum purified protein flowed over the captured antibodies; also called CFD; human CFD
# T1 sequence (P00746 26-253): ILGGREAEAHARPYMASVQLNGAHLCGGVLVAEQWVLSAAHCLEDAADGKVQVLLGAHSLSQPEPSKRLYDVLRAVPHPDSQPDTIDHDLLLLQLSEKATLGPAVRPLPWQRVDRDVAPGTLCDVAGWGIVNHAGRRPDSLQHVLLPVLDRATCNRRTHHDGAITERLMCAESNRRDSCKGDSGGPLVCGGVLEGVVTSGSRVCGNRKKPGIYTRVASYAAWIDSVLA
# Procedure: (§1) Antibodies were diluted to 0.5 ug/ml in HBS-EP+ buffer and captured on a protein A chip for 25 seconds to reach approximately 70 resonance units. […] Binding kinetic information was obtained by the BIAevaluation software (GE).
# [2] = target: T1, serum purified human Complement Factor D; assay: SPR Biacore, antibody on protein A chip, single cycle kinetics, 37 C;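 also: antibodies captured on the protein A surface to roughly 70 RU in HBS-EP+ buffer, with rate and affinity constants fitted using BIAevaluation software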
# Procedure: as §1
# [3] = target: T2, recombinant cynomolgus CFD, His-tagged (cynomolgus); assay: SPR MX96
# T2 construct: also called rcyCFD-His; recombinant Cyno-CFD
Binder,Kd [1],koff [1],kon [1],Kd [2],koff [2],kon [2],Kd [3]
"54V59D / 32W50I101V (antibody, V domains shown, KCD119 TAF variant; full antibody captured on protein A) VH: EVQLVESGGGLVQPGGSLRLSCAASGYTFTDYYMNWVRQAPGKGLEWIGDINPVTGDTDYNADFKRRFTFSLDTSKSTAYLQMNSLRAEDTAVYYCTREGPSFAYWGQGTLVTVSS VL: DIQLTQSPSSLSASVGDRVTITCRSSQTIVHWNGDTYLEWYQQKPGKAPILLIYKVSNRFSGVPSRFSGSGSGTDFTLTISSLQPEDFATYYCFQGSHVPVTFGQGTKVEIK",0.0158 nM,0.000105 s⁻¹,6.64e+06 M⁻¹ s⁻¹,0.0223 nM,0.000305 s⁻¹,1.37e+07 M⁻¹ s⁻¹,
"54V59D / 34D50V101V (antibody, V domains shown, KCD119 TAF variant; full antibody captured on protein A) VH: EVQLVESGGGLVQPGGSLRLSCAASGYTFTDYYMNWVRQAPGKGLEWIGDINPVTGDTDYNADFKRRFTFSLDTSKSTAYLQMNSLRAEDTAVYYCTREGPSFAYWGQGTLVTVSS VL: DIQLTQSPSSLSASVGDRVTITCRSSQTIVHSNDDTYLEWYQQKPGKAPVLLIYKVSNRFSGVPSRFSGSGSGTDFTLTISSLQPEDFATYYCFQGSHVPVTFGQGTKVEIK",0.0257 nM,0.000187 s⁻¹,7.26e+06 M⁻¹ s⁻¹,0.0591 nM,0.00079 s⁻¹,1.34e+07 M⁻¹ s⁻¹,
"54V59D / 34D60W101V (antibody, V domains shown, KCD119 TAF variant; full antibody captured on protein A) VH: EVQLVESGGGLVQPGGSLRLSCAASGYTFTDYYMNWVRQAPGKGLEWIGDINPVTGDTDYNADFKRRFTFSLDTSKSTAYLQMNSLRAEDTAVYYCTREGPSFAYWGQGTLVTVSS VL: DIQLTQSPSSLSASVGDRVTITCRSSQTIVHSNDDTYLEWYQQKPGKAPNLLIYKVSNRWSGVPSRFSGSGSGTDFTLTISSLQPEDFATYYCFQGSHVPVTFGQGTKVEIK",0.0213 nM,0.000187 s⁻¹,8.8e+06 M⁻¹ s⁻¹,0.0531 nM,0.00083 s⁻¹,1.56e+07 M⁻¹ s⁻¹,
"54V59D / 54R101V (antibody, V domains shown, KCD119 TAF variant) VH: EVQLVESGGGLVQPGGSLRLSCAASGYTFTDYYMNWVRQAPGKGLEWIGDINPVTGDTDYNADFKRRFTFSLDTSKSTAYLQMNSLRAEDTAVYYCTREGPSFAYWGQGTLVTVSS VL: DIQLTQSPSSLSASVGDRVTITCRSSQTIVHSNGDTYLEWYQQKPGKAPNLLIRKVSNRFSGVPSRFSGSGSGTDFTLTISSLQPEDFATYYCFQGSHVPVTFGQGTKVEIKR",0.0119 nM,0.000141 s⁻¹,1.19e+07 M⁻¹ s⁻¹,0.0154 nM,0.00037 s⁻¹,2.4e+07 M⁻¹ s⁻¹,
"31S54V59D / 54R101V (antibody, V domains shown, KCD119 TAF variant) VH: EVQLVESGGGLVQPGGSLRLSCAASGYTFTSYYMNWVRQAPGKGLEWIGDINPVTGDTDYNADFKRRFTFSLDTSKSTAYLQMNSLRAEDTAVYYCTREGPSFAYWGQGTLVTVSS VL: DIQLTQSPSSLSASVGDRVTITCRSSQTIVHSNGDTYLEWYQQKPGKAPNLLIRKVSNRFSGVPSRFSGSGSGTDFTLTISSLQPEDFATYYCFQGSHVPVTFGQGTKVEIKR",0.00394 nM,5.48e-05 s⁻¹,1.39e+07 M⁻¹ s⁻¹,0.00725 nM,0.000242 s⁻¹,3.33e+07 M⁻¹ s⁻¹,
"54V / 101V (antibody, V domains shown, KCD119 TAF variant; full antibody captured on protein A) VH: EVQLVESGGGLVQPGGSLRLSCAASGYTFTDYYMNWVRQAPGKGLEWIGDINPVTGDTSYNADFKRRFTFSLDTSKSTAYLQMNSLRAEDTAVYYCTREGPSFAYWGQGTLVTVSS VL: DIQLTQSPSSLSASVGDRVTITCRSSQTIVHSNGDTYLEWYQQKPGKAPNLLIYKVSNRFSGVPSRFSGSGSGTDFTLTISSLQPEDFATYYCFQGSHVPVTFGQGTKVEIK",0.0688 nM,0.000491 s⁻¹,7.14e+06 M⁻¹ s⁻¹,0.142 nM,0.00158 s⁻¹,1.11e+07 M⁻¹ s⁻¹,
"KCD216 (antibody, V domains shown) VH: QVHLQQSGPELVKPGASVKISCKASGYTFIDYYINWVKQRPGQGLEWIGWIFPGSDSTYYNEKFKGKATLTVDKSSSTAYMLLSSLTSEDSAVYFCARYGYYGSSFYAMDYWGQGTSVTVSS VL: DIQMTQSPASLSVSVGETVTITCRASENIYSNLAWYQQKQGKSPQLLVYAATNLADGVPSRFSGSGSGTQYSLKINSLQSEDFGSYYCQHFWGTPPTFGGGSKLEIK",,,,,,,13 nM
"KCD129 (antibody, V domains shown) VH: EVQLVESGGGLVQPKGSLKLSCAASGFSFNTYAMNWVRQAPGKGLEWVARIRSKSNNYATYYADSVKDRFTISRDDSESMVYLQMNNLKTEDTAMYYCVRHGYYWYFDVWGTGTTVTVSS VL: DVLMTQTPLSLPVSLGDQASISCRSSQSIVHSDGNTYLEWYLQKPGQSPKLLIYRVSNRFSGVPDRFSGSGSGTDFTLKISRMEAEDLGVYYCFQGSHVPYTFGGGTKLEIK",,,,,,,6 nM
"KCD232 (antibody, V domains shown) VH: EVQLVESGGGLVQPKGSLKLSCAASGFSFNTYAMNWVRQAPGKGLEWVARIRSKSNNYATYYADSVKDRFTISRDDSESMVYLQMNNLKTEDTAMYYCVRHGYYWYFDVWGTGTTVTVSS VL: DVLMTQTPLSLPVSLGDQASISCRSSQSIVHSDGNTYLEWYLQKPGQSPKLLIYRVSNRFSGVPDRFSGSGSGTDFTLKISRMEAEDLGVYYCFQGSHVPYTFGGGTKLEIK",,,,,,,5.5 nM
"KCD229 (antibody, V domains shown) VH: EVQLVESGGGLVQPKGSLKLSCAASGFSFNTYAMNWVRQAPGKGLEWVARIRSKSNNYATYYADSVKDRFTIFRDDSESMLYLQMNNLKTEDTAMYYCVRHGYYWYFDVWGTGTTVTVSS VL: DVLMTQNPLSLPVSLGDQASISCRSSQSIVHSNGNTYLEWYLQKPGQSPNLLIYNVFNRFSGVPDRFSGSGSGTDFTLKISRVEAEDLGVYYCFQGSHVPYTFGSGTKLEIK",,,,,,,1.6 nM
"KCD207 (antibody, V domains shown) VH: AVQLVESGGGLVQPKGSLKLSCAASGFSFNTYAMNWVRQAPGKGLEWVARIRSKSNNYATYYADSVKDRFTLSRDDSESMLYLQMNNLKTEDTAMYYCVRQGFYWYFDVWGTGTTVTVSS VL: DVLMTQTPLSLPVSLGDQASISCRSSQTIVHSNGNTYLEWYLQKSGQSPKLLIYNVSNRFSGVPDRFRGSGSGTDFTLKISRVEAEDLGVYYCFQGSHVPYTFGSGTKLEIK",,,,,,,1.4 nM
"KCD112 (antibody, V domains shown) VH: EVQLQQSGPELVKPGASVKISCKASGYSFTAYYMNWVKHSPEKSLEWIGDINPSTGGTTYNQKFKARATLTVDKSSSTAYMQLKSLTSEDSAVYYCATTYYSGNSYVGFAYWGQGTLVTVSA VL: DIVMTQSHKFMSTSVGDRVSITCKASQDVSTAVAWYQQKPGQSPKLLIFWTSTRHTGVPDRFTGSGSGTDYTLTISSVQAEDLALYYCQQHYTTPWTFGGGTKLEIK",,,,,,,9.1 nM
"KCD115 (antibody, V domains shown) VH: EVQLQQSGPELVKPGASVKISCKASGYSFTGYYMNWVKQSPEKSLEWIGDINPSTGGTTYNQKFKAKATLTVDKSSSTAYMQLKSLTSEDSAVYYCATPYYYGSSYVGFAYWGQGTLVTVSA VL: DIVMTQSHKFMSTSVGDRVSITCKASQDVSTAVDWYQQKPGQSPKLLIYWASTRHTGVPDRFTGSGSGTDYTLTISSVQAEDLALYYCQQHYSTPWTFGGGTKLEIK",,,,,,,18 nM
"KCD006 (antibody, V domains shown) VH: EVQLQQSGAELVKPGASVKLSCTASGFKIKDTYMHWVKERPEQGLEWIGRIDPANGNTKYDPKFQGKATITADTSSNTAYLQLSSLTSEDTAVYYCANAMDYWGQGTSVTVSS VL: QIILTQSPAIMSASPGEKVTMTCSARSSVSNMYWYQQKPGSSPRLLIYDTSNLASGVPVRFSGSGSGTSYSLTISRMEAEDAATYYCQQWSSYPWTFGGGTKLEIK",,,,,,,150 nM
